Residue numbers refer to the chain shown, from its start. Marks after values point to notes of the source that are not given here.
Columns and labels:
[1] = Average particle diameter, PdI and zeta potential of lipid nanoparticles (dynamic light scattering); format: physicochemical
Description: The mean particle diameter (number average value), ζ-mean particle diameter, and polydispersity index (PdI) of the lipid nanoparticles in PBS(−) (pH 7.4), as well as the zeta potential in 10 mM HEPES buffer (pH 7.4), were measured using an analyzing device, Zetasizer Nano ZS ZEN3600 (Malvern), which utilizes dynamic light scattering.

[2] = Encapsulation rate of lipid nanoparticles (Ribogreen); format: physicochemical
Description: The encapsulation rate of the lipid nanoparticles was calculated by measuring the amount of encapsulated nucleic acid (the amount of ssODN in the case of RNP-ssODN) using an RNA intercalator Ribogreen (manufactured by Life Technologies).

BALB/c mice = assay: Measurement of Fluc activity in tissues after iv Fluc mRNA-loaded lipid nanoparticles; format: in vivo, mouse; conditions: Example 2, FIG. 3; CL4F11-e-3 LNP with DSPC or DOPE; Balb/c mice
Description: First, lipid nanoparticles encapsulating Fluc mRNA (Fluc mRNA-loaded lipid nanoparticles) were intravenously injected into BALB/c mice (female, 4 weeks old) at a dose of 0.01 mg mRNA/kg body weight. Six hours after intravenous injection, the mice were euthanized, and each tissue was collected, frozen in liquid nitrogen, and stored at −80° C. The tissues were homogenized in passive lysis buffer (Promega) using a bead cell disrupter (Micro Smash MS-100R, TOMY Seiko). Tissue debris was removed by centrifugation and the supernatant was collected. Fluc activity in the supernatant was measured using a luciferase assay system (E1500, Promega) according to the manufacturer's protocol. Luminescence was measured using a luminometer (Luminescencer-PSN, ATTO). The protein concentration was determined using a commercially available measurement kit (BCA Protein Assay Kit, Pierce). Fluc activity was expressed as relative light units (RLU) per mg of protein.

[3] = Blood test 24 hours after administration (toxicity); format: in vivo, mouse; conditions: mice
Description: TTR-RNP-ssODN-loaded lipid nanoparticles were intravenously injected to BALB/c mice (female, 4 weeks old) at 2 mg RNP/kg body weight for two consecutive days. One week after the last injection, mice were anesthetized, weighed, and blood was collected. […] Hematological parameters in serum were measured by Oriental Yeast Co., Ltd.
In addition, for mice administered with Fluc mRNA-loaded lipid nanoparticles containing CL4F12-e-4, blood was collected 24 hours after administration and tested for each component. As a control, a blood test was also performed in a similar manner on mice that received PBS instead of the Fluc mRNA-loaded lipid nanoparticles. The results are shown in Table 14 (n=3, unpaired t-test). In the table, TP stands for total protein, AST for aspartate transaminase, ALB for albumin, LDH for […], BUN for blood urea nitrogen, γ-GT for γ-glutamyl transpeptidase, CRE for creatinine, T-CHO for total cholesterol, IP for inorganic phosphate, TG for triglyceride, HDL-C for high-density lipoprotein cholesterol, T-BIL for total bilirubin, and GLU for glucose, respectively. Additionally, ** indicates P<0.01, and * indicates P<0.05.

TTR gene = assay: Measurement of TTR-KO activity (serum TTR protein, ELISA); format: in vivo, mouse; conditions: for serum TTR (5′ versus 3′ mismatch site): FIG. 8, CL4H6 LNP, sgTTR-G211, 7 days after administration
Description: Lipid nanoparticles encapsulating Cas9/sgTTR-RNP (Cas9/sgTTR-RNP-loaded lipid nanoparticles) were intravenously injected to BALB/c mice (female, 4 weeks old) at the indicated doses. One week after intravenous injection, the mice were euthanized, blood was collected, and serum was isolated by centrifugation. The TTR protein concentration in the serum was determined using a commercially available ELISA kit (Prealbumin ELISA Kit (mouse), Aviva Systems Biology) according to the manufacturer's protocol. The serum TTR protein concentration of untreated mice was taken as 100%, and the relative value (%) of the serum TTR protein concentration of mice administered with each lipid nanoparticle was taken as the knockout activity (TTR-KO activity) of the lipid nanoparticle.

[4] = Evaluation of biodistribution (fluorescently labeled RNP-ssODN); format: in vivo, mouse; conditions: mice iv 2 mg RNP/kg, 1 hour; labeled TTR-RNP-ssODN in CL4H6 LNP (ssODN(−): free RNP, no LNP)
Description: For fluorescent labeling of lipid nanoparticles, the RNP-ssODN solution described above was mixed with a three-fold molar amount of a fluorescent molecule (DyLight 650 NHS ester) in DMSO and incubated for 30 min at ambient temperature in the dark. Unreacted fluorescent molecules were removed by ultrafiltration (Amicon Ultra-0.5, MWCO 3 kDa, Millipore).
Lipid nanoparticles encapsulating the obtained fluorescently labeled RNP-ssODN (fluorescently labeled RNP-ssODN-loaded lipid nanoparticles) were intravenously injected into BALB/c mice (female, 4 weeks old) at 2 mg RNP/kg body weight. One hour after intravenous injection, the mice were euthanized and various tissues, including blood, were collected. The collected blood was immediately diluted with 1% sodium dodecyl sulfate (SDS) solution. The collected tissues were immediately weighed and then homogenized in 1% sodium dodecyl sulfate (SDS) solution. The resulting homogenates were transferred to a black 96-well plate, and fluorescence was measured using a microplate reader (VarioskanLux, Thermo Fisher Scientific) at settings of λex=652 nm and λem=672 nm. Calibration curves were generated using fluorescently labeled RNP-ssODN-loaded lipid nanoparticles and blood or tissue homogenates similarly prepared from untreated mice. Biodistribution was expressed as the percentage of injected dose per tissue or blood (% injected dose).

dsDNA from the TTR locus = assay: In vitro DNA cleavage activity; format: biochemical, mouse; conditions: n=3
From the text: Genomic DNA was collected and purified from BALB/c mouse liver tissue using a commercially available nucleic acid extraction kit (NucleoSpin Tissue, MACHEREY-NAGEL) according to the manufacturer's protocol.
The dsDNA from the TTR locus was amplified by PCR (using KAPA HiFi HotStart DNA polymerase (KAPA Biosystems)) using the genomic DNA as a template and the primer set shown in Table 4, and purified using a commercially available nucleic acid purification kit (ISOSPIN PCR Product, Nippon Gene).
The ssODN (5 equivalents relative to […]) was added to Cas9/sgTTR-RNP to form a TTR-RNP-ssODN complex. […] The reaction solution was then heated at 65° C. for 5 minutes to inactivate Cas9-RNP, and the dsDNA was then subjected to electrophoresis on a 3% agarose gel at 100 V for 40 minutes. After electrophoresis, the gel was stained (GelRed, Biotium) and visualized using a fluorescent/visible light gel imaging system (Printgraph CMOS I, ATTO). Bands were quantified using image analysis software (ImageJ).
DNA cleavage was calculated using the following formula: in the formula, Int_full and Int_cleaved indicate the intensities derived from full length (uncleaved) and cleaved DNA, respectively.

[5] = Fluc mRNA-loaded LNP, CL4F11-e-3/neutral lipid (DSPC or DOPE)/cholesterol/PEG-DMG 50/10/40/0.75 mol%
[6] = blood 24 hours after Fluc mRNA-loaded LNP containing CL4F12-e-4, n=3
[7] = TTR-RNP-ssODN-loaded LNP, sgTTR-G211, CL4H6/DSPC/cholesterol/PEG-DMG 50/10/40/3.5 mol%, Table 13
[8] = TTR-RNP-ssODN-loaded LNP, sgTTR-G211, CL4H6/DSPC/cholesterol/PEG-DMG 50/10/40/3.5 mol%, Table 11
[9] = TTR-KO activity in mice, TTR-RNP-ssODN-loaded LNP CL4H6/DSPC/cholesterol/PEG-DMG 50/10/40/3.5 mol%, sgTTR-G211 (TTR_3) or sgTTR-G269 (TTR_4)

CCCCCCCC/C=C\CCCCCCCC(=O)OC[C@H](COP(=O)(O)OCCN)OC(=O)CCCCCCC/C=C\CCCCCCCC [DOPE, 1,2-dioleoyl-sn-glycero-3-phosphoethanolamine]
Number-average particle diameter [1, 5]: 55.7 nm
PdI [1, 5]: 0.196
ζ-average [1, 5]: 82.1 nm
ζ-potential [1, 5]: −2.35 mV
Encapsulation rate [2, 5]: 89.1%
Fluc activity in liver and spleen (BALB/c mice): stable activity over a wide range of DOPE contents

CCCCCCC(CCCC)CCCCC(=O)OCCCCCCC(O)(CCCCCCOC(=O)CCCCC(CCCC)CCCCCC)CCCCN(CCC)CCC (centres unmarked) [CL4F12-e-4, 7-(4-(dipropylamino)butyl)-7-hydroxytridecane-1,13-diylbis(6-butyldodecanoate)]
toxicity (blood test) ([3]; 24 hours after Fluc mRNA-loaded LNP): no particular toxicity was observed
ALB [3, 6]: 3.3 ± 0.1 g/dL
ALT [3, 6]: 39.3 ± 3.4 IU/L
AMY [3, 6]: 1879.3 ± 136.2** IU/L
AST [3, 6]: 95.3 ± 3.4** IU/L
BUN [3, 6]: 25.3 ± 2.8 mg/dL
CRE [3, 6]: 0.1 ± 0.01 mg/dL
Ca [3, 6]: 11.9 ± 0.4** mg/dL
Cl [3, 6]: 98 ± 0 mEq/L
GLU [3, 6]: 214 ± 8.2 mg/dL
HDL-C [3, 6]: 78.7 ± 4.7** mg/dL
IP [3, 6]: 11.1 ± 0.5 mg/dL
K [3, 6]: 6.9 ± 0.2 mEq/L
LDH [3, 6]: 732 ± 39.6 IU/L
Na [3, 6]: 150.7 ± 1.9 mEq/L
T-BIL [3, 6]: 0.03 ± 0.01 mg/dL
T-CHO [3, 6]: 154.7 ± 8.4** mg/dL
TG [3, 6]: 134 ± 52.8 mg/dL
TP [3, 6]: 4.9 ± 0.1 g/dL
γ-GT [3, 6]: 6> IU/L

B1: ssODN-TTR_3-24° C.-5′: ssODN pairing with sgTTR-G211, mismatch on one side; SEQ ID NO 19 (nucleic acid)
DNA: AAAAAAAAAAAAAAAAAAAAAAAAAAAAAAAAAAAAAAAAAAAAAAAAAAAAAAAATGCTGTAGTAAAAAAAAATTAAAAAAAAAAAAAAAAAAAAAAAAAAAAAAAAAAAAAAAAAAAAAAAAAAAAAAAA
Number-average particle diameter [1, 7]: 76.7 nm
PdI [1, 7]: 0.147
ζ-average [1, 7]: 123.5 nm
ζ-potential [1, 7]: 2.71 mV
Encapsulation rate [2, 7]: 61.5%
serum TTR (5′ versus 3′ mismatch site) (TTR gene): about the same

B2: ssODN-TTR_3-0%: ssODN, 0% matched with sgTTR-G211; SEQ ID NO 9 (nucleic acid)
DNA: B1 DNA with T57A, G58A, C59A, T60A, G61A, T62A, A63T, G64A
ID %/tissue blood [4]: 8.48 ID %/tissue
ID %/tissue kidney [4]: 0.17 ID %/tissue
ID %/tissue liver [4]: 31.62 ID %/tissue
ID %/tissue lung [4]: 0.18 ID %/tissue
ID %/tissue spleen [4]: 4.18 ID %/tissue
Number-average particle diameter [1, 8]: 67.2 nm
PdI [1, 8]: 0.192
ζ-average [1, 8]: 128.4 nm
ζ-potential [1, 8]: 3.49 mV
Encapsulation rate [2, 8]: 89.4%

B3: ssODN-TTR_3-80%: ssODN pairing with sgTTR-G211, 80% matched; SEQ ID NO 4 (nucleic acid)
DNA: AAAAAAAAAAAAAAAAAAAAAAAAAAAAAAAAAAAAAAAAAAAAAAAAAAAAAAAAAACTGTAGACGTGGCTGTTTAAAAAAAAAAAAAAAAAAAAAAAAAAAAAAAAAAAAAAAAAAAAAAAAAAAAAAAA
ID %/tissue blood [4]: 11.71 ID %/tissue
ID %/tissue kidney [4]: 0.16 ID %/tissue
ID %/tissue liver [4]: 43.14 ID %/tissue
ID %/tissue lung [4]: 0.33 ID %/tissue
ID %/tissue spleen [4]: 3.21 ID %/tissue
Number-average particle diameter [1, 8]: 96.8 nm
PdI [1, 8]: 0.112
ζ-average [1, 8]: 141.3 nm
ζ-potential [1, 8]: 2.88 mV
Encapsulation rate [2, 8]: 69.4%
KO (%) 1st test (TTR gene; [9]): 0.3%
KO (%) 2nd test (TTR gene; [9]): 5.6%
in vitro DNA cleavage activity (dsDNA from the TTR locus; FIG. 7, TTR-RNP-ssODN, sgTTR-G211, 37° C. 30 min): extremely low DNA cleavage activity
relative DNA cleavage activity at 37° C. (dsDNA from the TTR locus; FIG. 22(A), sgTTR-G211 RNP, activity without ssODN = 100%): about 20%

B4: ssODN-TTR_3-50° C.-3′: ssODN pairing with sgTTR-G211, mismatch on one side; SEQ ID NO 20 (nucleic acid)
DNA: B3 DNA with A57T, A58G, G73A, T74A
Number-average particle diameter [1, 7]: 79.0 nm
PdI [1, 7]: 0.166
ζ-average [1, 7]: 139.9 nm
ζ-potential [1, 7]: 4.02 mV
Encapsulation rate [2, 7]: 58.7%
serum TTR (5′ versus 3′ mismatch site) (TTR gene): about the same

B5: ssODN-TTR_3-50° C.-5′: ssODN pairing with sgTTR-G211, mismatch on one side; SEQ ID NO 21 (nucleic acid)
DNA: B3 DNA with C59A, T75A, T76A
Number-average particle diameter [1, 7]: 86.8 nm
PdI [1, 7]: 0.094
ζ-average [1, 7]: 124.9 nm
ζ-potential [1, 7]: 3.46 mV
Encapsulation rate [2, 7]: 56.6%
serum TTR (5′ versus 3′ mismatch site) (TTR gene): about the same

Reference: patent publication US20250205362A1, “LIPID NANOPARTICLES” (NATIONAL UNIVERSITY CORPORATION HOKKAIDO UNIVERSITY, priority 2022, published 2025)
